# Test results published in patent US20250340623A1 (AC IMMUNE, published 2025).
# Positions count from the first letter of the chain named. Where no end group is shown, it is not given here. The star is where a group is joined. Biotin = O=C1N[C@H]2[C@H](CS[C@H]2CCCCC(=O)*)N1; Ahx = NCCCCCC(=O)O
# T1: 127-140aa
# T1 peptide: {Biotin-Ahx}-MPSEEGYQDYEPEA
# T2: 82-96aa
# T2 construct: also called alpha-synuclein peptide 82-96
# T2 peptide: {Biotin-Ahx}-VEGAGSIAAATGFVK
# T3: 118-132aa
# T3 peptide: {Biotin-Ahx}-VDPDNEAYEMPSEEG
# T4: 46-60aa
# T4 construct: also called alpha-synuclein peptide 46-60
# T4 peptide: {Biotin-Ahx}-EGVVHGVATVAEKTK
# T5: 64-78aa
# T5 construct: also called alpha-synuclein peptide 64-78
# T5 peptide: {Biotin-Ahx}-TNVGGAVVTGVTAVA
# B1: ACI-7067-1102G3-Ab1 (antibody, V domains shown)
# VH: EVKLEESGGGLVQPGGSMKLSCAASGFTFSDAWMNWVRQSPEKGLEWVAEIRNKAHNHATYYAESVKGRFTISGDDSKSSVYLQMNNLRAEDTGIYYCTIYSYWGQGTLVTVSA
# VL: SIVMTQTPKFLLVSAGDRVTITCKASQSVTKDVAWYQQKPGQSPKLLIYSTSNRYSGVPDRFTGSGYGTDFTFTINTVQTEDLAVYFCQQDYRIPYTFGGGTKLEIK
# notes: mouse hybridoma mAb; VH/VL only; also called 1102G3F2
# B2: ACI-7067-1112H8-Ab2 (antibody, V domains shown)
# VH: B1 VH with S30T, V48I, H58Y, T71D, A90V, Q106P
# VL: SIVMTQTPKFLLMSPGDRVTMTCTASQSVSNYVAWYQQKPGQSPKLLIYSASNRFTGVPDRFTGSGYGTDFTFTINTVQTEDMAVYFCQQDYTSPYTFGGGTKLEIK
# notes: mouse hybridoma mAb; VH/VL only; also called 1112H8C12
# B3: ACI-1113D10_4317A4 (bispecific antibody, V domains shown)
# VH 1: EVQLVESGGGLVQPKGSLKLSCAASGFTFNTYALHWVRQAPGKGLEWVARIRSKSSNYATYYADSVKDRFTISRDDSQSMLYLQMNNLKTEDTGMYYCVRGGVSPFDYWGQGTTLTVSS
# VL 1: QIVLTQSPAIMSASPGEKVTMTCSASSSVSYMHWYQQKSGTSPKRWIYDTSKLASGVPARFSGSGSGTSYSLTISSMEAEDSATYYCQQWSNNPPTFGGGTKLEIK
# VH 2: EVQLQQSGAELVRPGASVKLSCTASGFNIKDDYMHWVKQRPEQGLEWIGWIDPENGDTEYASKFQGKATMTADTSSNTAYLQLSSLTSEDTAVYYCKTWGTTQALFPYWGQGTLVTVSA
# VL 2: DIVMTQSQKFMYTSVGDRVSITCKASQNVGNAVGWYQQKAGQSPKLLIHSASNRYTGVPDRFTGTGSGTDFTLTINNMQSEDLADYFCQQYRSYPLTFGAGTKLELK
# notes: biparatopic; Arm A ACI-7067-1113D10-Ab1, Arm B ACI-7088-4317A4-Ab1; engineered constant domains not specified
# B4: ACI-2503C6_1101C8 (bispecific antibody, V domains shown)
# VH 1: DVQLQESGPGLVKPSQSLSLTCSVTGYSITSGYYWNWIRLFPGNKLEWLGYINYDGSNNFNPSLKNRISITRDTSKNQFFLKLNSVTSEDTATYFCLRGDWDWGQGTLVTVSA
# VL 1: not shown
# VH 2: EVQLVESGGGLVQPKGSLKLSCAASGFSFNIYAMNWVRQAPGKGLEWVARIRSKSNNYATYYADSVKDRFTISRADSESMLYLQMNNLKTEDTAMYYCVRVGLRFYAMDYWGQGTSVTVSS
# VL 2: DVLMTQTPLSLPVSLGDQASISCRSSQSIVHSNGNTYLEWYLQKPGQSPKLLIYKVSNRFSGVPDRFSGSGSGTDFTLKISRVEAEDLGVYYCFQGSQGPLTFGAGTKLELK
# notes: biparatopic; Arm A ACI-7079-2503C6-Ab1, Arm B ACI-7067-1101C8-Ab2; engineered constant domains not specified
# B5: ACI-4F3_4317A4 (bispecific antibody, V domains shown)
# VH 1: EVQLQQSGPELVKPGASVKISCKASGYTFTDYYMNWVKQSHGKSLEWIGDINPNTGTNSYNQKFKGRASLTVDKFSSAAYMELRSLTSEDSAVYYCARTGYGDPISSYYYALDYWGQGTSVTVSS
# VL 1: DIVMSQSPSSLAVSAGEKVTMSCKSSQSLLNSRTRKNYLAWYQQKPGQSPKLLIYWASTRESGVPDRFTGSGSGTDFTLTISSVQAEDLAVYYCKQSYNLWTFGGGTKLEIK
# VH 2: B3 VH 2
# VL 2: B3 VL 2
# notes: biparatopic; Arm A ACI-8033-4F3-Ab1, Arm B ACI-7088-4317A4-Ab1; engineered constant domains not specified
# B6: ACI-5A12_3108C10 (bispecific antibody, V domains shown)
# VH 1: QVHLKQSGADLVRPGASVKLSCKASGYTFTDYYINWVKQRPGQGLEWIARIYPGSGNTYYNEKFKGRATLSAEKSSTTAYMQLSSLTSEDSAVYFCVVGYYGAWGQGTTLTVSS
# VL 1: DVVMTQTPLSLPVSLGDQASISCRSSQSLVHSNGKTHLHWYLQKPGQSPKLLIYKVSNRFSGVPDRFSGSGSGTDFTLKISRVEAEDLGVYFCSQSTHVPWTFGGGTKLEIK
# VH 2: ELQLVESGGGLVRPGGSLKLSCATSGFTFRNYAMSWVRQTPAKRLEWVATISDGGTYTFYSDNVKGRFTISRDNVKNTLYLQMSHLKSEDTAMYYCSRAGSGHWGQGTTLTVSS
# VL 2: not shown
# notes: biparatopic; Arm A ACI-8033-5A12-Ab1, Arm B ACI-7079-3108C10-Ab2; engineered constant domains not specified
# B7: ACI-4F3_5A12 (bispecific antibody, V domains shown)
# VH 1: B5 VH 1
# VL 1: B5 VL 1
# VH 2: B6 VH 1
# VL 2: B6 VL 1
# B8: Fab ACI-7067-1113D10-Ab1 (Fab, V domains shown)
# VH: B3 VH 1
# VL: B3 VL 1
# B9: Fab ACI-7067-1108B11-Ab2 (Fab, V domains shown)
# VH: EVQLVESGGGLVQPKGSLKLSCAASGFTFNTYAMHWVRQAPGKGLEWVARIRSKGSNYATNYADSVKDRFTISRDDSQSMLYLQMNNLKTEDTAMYYCVRGHGSSYFSYWGQGTLVTVSA
# VL: QIVLTQSPAIMSASPGERITMTCSANSSVTYMHWYQQKSGTSPKRWIYDTSNLASGVPARFSGSGSGTSYSLTISSMEAEDAATYYCQQWKSHPPTFGAGTKLELK
# B10: Fab ACI-7067-1101C8-Ab2 (Fab, V domains shown)
# VH: B4 VH 2
# VL: B4 VL 2
# B11: Fab ACI-7067-1108H1-Ab1 (Fab, V domains shown)
# VH: B1 VH with E5V, A23T, Y61N, Y103F
# VL: B1 VL with K31N, D32Y, Q37H, T51A
# Biological target: T1, 127-140aa
# Experiment: indirect ELISA on biotinylated 15-mer peptide
# Procedure: (§1) Serum-free supernatants were harvested from stable hybridomas. The supernatants containing antibodies of interest were then screened by an indirect ELISA assay to determine epitopes. Epitopes were first determined using a library of 15-mer peptides covering the entire sequence of human alpha-synuclein protein, spanning amino acids (aa) 1-140 with 9aa offset and […] overlap. […] Briefly, streptavidin-coated ELISA plates were blocked overnight at 4° C. […] Plates were washed with PBS/0.05% Tween®20 and then incubated with the hybridoma supernatants at 1/100 dilution for 1 hour at 25° C.
row,Binder,binding result
1,B1,no binding (tested: supernatant 1/100)
2,B2,no binding (tested: supernatant 1/100)

# Biological target: T2, 82-96aa
# Experiment: indirect ELISA on biotinylated 15-mer peptide
# Procedure: as §1
row,Binder,binding result
1,B1,no binding (tested: supernatant 1/100)
2,B2,no binding (tested: supernatant 1/100)

# Biological target: T3, 118-132aa
# Experiment: indirect ELISA on biotinylated 15-mer peptide
# Procedure: as §1
row,Binder,binding result
1,B1,no binding (tested: supernatant 1/100)
2,B2,no binding (tested: supernatant 1/100)

# Biological target: T4, 46-60aa
# Experiment: indirect ELISA on biotinylated 15-mer peptide
# Procedure: as §1
row,Binder,binding result
1,B1,no binding (tested: supernatant 1/100)
2,B2,no binding (tested: supernatant 1/100)

# Biological target: T6, alpha-synuclein fibrils (UniProt P37840 1-140)
# Experiment: SPR, captured bAb
# Procedure: (§2) Binding affinity of alpha-synuclein biparatopic antibodies to monomeric or fibrillar alpha-synuclein species was performed using a single-cycle kinetics method. The instrument was primed with 1×HBS-P+ buffer (10× stock from GE Healthcare, BR-1003-52 diluted in Milli-Q water). Injections of monomeric alpha-synuclein (Boston Biochem, SP-485), increasing in concentration from 0.62-50 nM prepared from serial 2-fold dilutions, were performed with contact times of 300 sec/injection at a flow rate of 30 μL/min. A dissociation phase of 900 sec followed the final 50 nM injection. Regeneration of the sensor to the goat anti-human antibody layer was achieved using 3 regenerations of 10 mM Glycine pH 1.7. […] Regeneration of the sensor to the goat anti-mouse antibody layer was achieved using 3 regenerations of 10 mM Glycine pH 1.7. Results obtained from single-cycle kinetics were evaluated by Biacore 8K evaluation software with 1:1 binding homogenous Langmuir model with a preceeding buffer injection as a blank subtraction. The following kinetic parameters were obtained: on-rate (ka), off-rate (kd), affinity constant (KD, ratio of kd by ka), maximum response (Rmax), and goodness of fit (Chi2).
row,Binder,fold slower dissociation rate (Kd) from fibrillar than from monomeric alpha-synuclein [fold]
1,B3,≥ 100
2,B4,≥ 100
3,B5,≥ 100
4,B6,≥ 100

# Biological target: T7, alpha-synuclein seeds (UniProt P37840 1-140)
# Experiment: cell-based or functional assay
row,Binder,"IC50, percentage of de novo alpha-synuclein aggregates formed in cells after immunodepletion of seeds [nM]"
1,B6,22.7
2,B7,15.2

# Biological target: T8, monomeric alpha-synuclein (UniProt P37840 1-140)
# Experiment: SPR, captured bAb
# Procedure: (§3) Any non-covalently bound antibodies were removed by three successive regenerations of 10 mM Glycine pH 1.7 (GE Healthcare, 28-9950-84). Immobilization levels were evaluated following ethanolamine capping (Bound) and finally following regeneration (Final). Non-covalent immobilization of alpha-synuclein biparatopic antibodies on flow cell 2 of channels 1-8 was performed at a final concentration of 5 μg/mL, diluted in 10 mM sodium acetate pH 5.5 (GE Healthcare, BR-1003-52). Non-covalent immobilization of an isotype control antibody on flow cell 1 of channels 1-8 was performed at a final concentration of 5 μg/mL, diluted in 10 mM sodium acetate pH 5.5 (GE Healthcare, BR-1003-52).
# as §2
# (§4) Kinetic constants were determined from 1:1 homogenous binding models for all cases.
Binder,koff [s⁻¹],kon [M⁻¹ s⁻¹]
B3,0.000514,1.23e+06
B4,0.00025,220000
B5,0.00103,884000
B6,> 1,> 2.9e+07

# Biological target: T6, alpha-synuclein fibrils
# Experiment: SPR, captured bAb
# Remark: another data set of the same source
# Procedure: as §3, §2, §4
Binder,koff [s⁻¹],kon [M⁻¹ s⁻¹]
B3,3.48e-07,56800
B4,1.53e-07,61600
B5,7.84e-08,51700
B6,9.19e-05,11200

# Biological target: T7, alpha-synuclein seeds
# Experiment: cell-based or functional assay
# Remark: another data set of the same source
row,Binder,"aggregation half-time (τ1/2) of seeded alpha-synuclein aggregation, ThT; no antibody 18.0 hours [h]"
1,B8,21
2,B9,22.3
3,B10,26.3
4,B11,19.4

# Biological target: T5, 64-78aa
# Experiment: indirect ELISA on biotinylated 15-mer peptide, supernatant 1/100
# Procedure: as §1
row,Binder,binding result
1,B1,binds
2,B2,binds

# Biological target: T8, monomeric alpha-synuclein
# Experiment: SPR, captured bAb; head says nM, kd/ka gives M
# Procedure: as §3, §2, §4
row,Binder,Kd [nM]
1,B3,0.416
2,B4,1.14
3,B5,1.17
4,B6,34.5

# Biological target: T6, alpha-synuclein fibrils
# Experiment: SPR, captured bAb; head says nM, kd/ka gives M
# Procedure: as §3, §2, §4
row,Binder,Kd [nM]
1,B3,0.00614
2,B4,0.00248
3,B5,0.00152
4,B6,8.21
